Measured values published in patent publication US10617757B2, “Methods for treating multiple myeloma” (The Regents of the University of California, priority 2014, dated 2020).

System: licensed KIR3DL1+ NK cells
Assay: NK cell degranulation (CD107α staining, flow cytometry) stimulated by patient-derived myeloma target cells
Format: cell-based, human
Conditions: presence vs absence of SAR650984; myeloma target cells expressing HLA-Bw4-I80 ligand; FIG. 8
Method: The functional capacity of a patient's NK cells stimulated by pre-treatment patient-derived myeloma target cells was assessed in response to SAR650984, using flow cytometry (FIG. 8).

Which “Degranulation as measured by CD107α staining (surrogate marker for cytotoxicity)” value does the source give for “SAR650984: a humanized anti-CD38 antibody; comprises VH and VL CDR sequences set forth in SEQ ID NOs:1-6” here?
Its value is “greatly enhanced degranulation”.
